# According to paper doi:10.1101/313791 (bioRxiv, 2018):
# B1: HDA19-EGFP (HDA19pro:HDA19-EGFP) (enzyme, Arabidopsis thaliana, UniProt O22446 1-501, looked up)
# chain: MDTGGNSLASGPDGVKRKVCYFYDPEVGNYYYGQGHPMKPHRIRMTHALLAHYGLLQHMQVLKPFPARDRDLCRFHADDYVSFLRSITPETQQDQIRQLKRFNVGEDCPVFDGLYSFCQTYAGGSVGGSVKLNHGLCDIAINWAGGLHHAKKCEASGFCYVNDIVLAILELLKQHERVLYVDIDIHHGDGVEEAFYATDRVMTVSFHKFGDYFPGTGHIQDIGYGSGKYYSLNVPLDDGIDDESYHLLFKPIMGKVMEIFRPGAVVLQCGADSLSGDRLGCFNLSIKGHAECVKFMRSFNVPLLLLGGGGYTIRNVARCWCYETGVALGVEVEDKMPEHEYYEYFGPDYTLHVAPSNMENKNSRQMLEEIRNDLLHNLSKLQHAPSVPFQERPPDTETPEVDEDQEDGDKRWDPDSDMDVDDDRKPIPSRVKREAVEPDTKDKDGLKGIMERGKGCEVEVDESGSTKVTGVNPVGVEEASVKMEEEGTNKGGAEQAFPPKT
# What was measured:
# [1] = molecular target: B1; test: fluorescence correlation spectroscopy
# [2] = molecular target: the molecule itself; test: fluorescence correlation spectroscopy
Binder,percent of the complex in a 1:1 ratio [1],stoichiometry N [1],stoichiometry N [2]
"SCR-mCherry (SCRpro:SCR-mCherry) (natural protein, Arabidopsis thaliana, UniProt Q9M384 1-653, looked up) MAESGDFNGGQPPPHSPLRTTSSGSSSSNNRGPPPPPPPPLVMVRKRLASEMSSNPDYNNSSRPPRRVSHLLDSNYNTVTPQQPPSLTAAATVSSQPNPPLSVCGFSGLPVFPSDRGGRNVMMSVQPMDQDSSSSSASPTVWVDAIIRDLIHSSTSVSIPQLIQNVRDIIFPCNPNLGALLEYRLRSLMLLDPSSSSDPSPQTFEPLYQISNNPSPPQQQQQHQQQQQQHKPPPPPIQQQERENSSTDAPPQPETVTATVPAVQTNTAEALRERKEEIKRQKQDEEGLHLLTLLLQCAEAVSADNLEEANKLLLEISQLSTPYGTSAQRVAAYFSEAMSARLLNSCLGIYAALPSRWMPQTHSLKMVSAFQVFNGISPLVKFSHFTANQAIQEAFEKEDSVHIIDLDIMQGLQWPGLFHILASRPGGPPHVRLTGLGTSMEALQATGKRLSDFADKLGLPFEFCPLAEKVGNLDTERLNVRKREAVAVHWLQHSLYDVTGSDAHTLWLLQRLAPKVVTVVEQDLSHAGSFLGRFVEAIHYYSALFDSLGASYGEESEERHVVEQQLLSKEIRNVLAVGGPSRSGEVKFESWREKMQQCGFKGISLAGNAATQATLLLGMFPSDGYTLVDDNGTLKLGWKDLSLLTASAWTPRS",98.8%,1 ratio (1:1),
B1,,,2
